Results as given in publication PMC2241821, “A focused antibody library for selecting scFvs expressed at high levels in the cytoplasm” (BMC Biotechnology, 2007).

B1: anti-tubulin scFv E12C (scFv, V domains shown)
VH: EVQLVESGGSLVKPGGSLRLSCAASGFTFSNYSMNWVRQAPGKGLEWISSISGSSRYIYYADFVKGRFTISRDNATNSLYLQMNSLRAEDTAVYYCVRSGGNTFDYWGRGTLVTVSS
VL: QSVLTQPASVSGSPGQSITISCAGTSSDVGGYNYVSWYQQHPGKAPKLMIYEDSKRPSGVSNRFSGSKSGNTASLTISGLQAEDEADYYCQQYYRKPWTFGGGTKLAVL
notes: source: E. coli BL21(DE3)pLysS cytoplasm (pET23NN); in cell extract, and purified (Ni-NTA); not shown: c-myc, C-terminal, kept
B2: anti-tubulin scFv F1C (scFv, V domains shown)
VH: EVQLVESGGSLVKPGGSLRLSCAASGFTFSNYSMNWVRQAPGKGLEWISSISGSSRYIYYADFVKGRFTISRDNATNSLYLQMNSLRAEDTAVYYCVRGNADGGENWELFDKWGRGTLVTVSS
VL: QSVLTQPASVSGSPGQSITISCAGTSSDVGGYNYVSWYQQHPGKAPKLMIYEDSKRPSGVSNRFSGSKSGNTASLTISGLQAEDEADYYCQLYQNTLWTFGGGTKLAVL
notes: as for B1

Molecular target: T1, αβ tubulin dimer (pig, UniProt P02550;P02554)
T1 construct: source: purified from pig brain
Assay: ELISA; tubulin coated on a Nunc Maxisorp 96-well plate; 5-20 μl of cytoplasmic extract of E. coli expressing the scFv; revealed with 9E10 and HRP anti-mouse IgG; also done in presence or absence of 10 mM DTT
Conditions: one partner purified

| binding result | Binder |
| --- | --- |
| binds | B1 |
| binds | B2 |
